Measured values: patent publication US20220033505A1

What was measured:
[1] = biological target: HLA-B exogenously expressed on cells (K562-HLA-B) (human) (UniProt P01889); test: flow cytometry; IgG1 mAb on cells expressing HLA-B
[2] = biological target: HLA-C exogenously expressed on cells (K562-HLA-C) (human) (UniProt P10321); test: flow cytometry; IgG1 mAb on cells expressing HLA-C
[3] = biological target: HLA-A exogenously expressed on cells (K562-HLA-A) (human) (UniProt P04439); test: flow cytometry; IgG1 mAb on cells expressing HLA-A

Sequence of HLA-C exogenously expressed on cells (K562-HLA-C) (human) (P10321 25-366): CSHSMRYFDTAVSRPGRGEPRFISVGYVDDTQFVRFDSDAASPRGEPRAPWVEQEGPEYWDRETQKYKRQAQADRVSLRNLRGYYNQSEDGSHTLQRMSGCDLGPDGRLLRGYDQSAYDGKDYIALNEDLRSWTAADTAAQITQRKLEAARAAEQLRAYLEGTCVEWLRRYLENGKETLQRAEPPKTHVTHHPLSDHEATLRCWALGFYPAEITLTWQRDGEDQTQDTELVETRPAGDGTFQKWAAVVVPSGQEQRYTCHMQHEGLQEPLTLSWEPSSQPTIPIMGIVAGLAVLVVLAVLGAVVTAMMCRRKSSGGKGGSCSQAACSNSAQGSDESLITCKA
Sequence of HLA-B exogenously expressed on cells (K562-HLA-B) (human) (P01889 25-362): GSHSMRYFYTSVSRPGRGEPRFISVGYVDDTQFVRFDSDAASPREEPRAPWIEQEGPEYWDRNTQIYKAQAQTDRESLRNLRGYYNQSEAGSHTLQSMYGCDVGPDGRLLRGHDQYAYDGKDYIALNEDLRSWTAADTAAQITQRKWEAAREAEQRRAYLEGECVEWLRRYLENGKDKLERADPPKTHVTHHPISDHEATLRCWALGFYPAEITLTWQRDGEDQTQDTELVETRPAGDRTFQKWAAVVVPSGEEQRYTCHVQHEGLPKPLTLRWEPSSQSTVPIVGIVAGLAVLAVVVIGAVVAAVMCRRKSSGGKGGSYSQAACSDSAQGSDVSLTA

- Geomean fluorescence signal (maximum value for binding) [1]: 5790
- Geomean fluorescence signal (maximum value for binding) [2]: 266
- Geomean fluorescence signal (maximum value for binding) [3]: 2540
B1: MHGB689 (antibody, human IgG1, kappa, V domains shown)
VH: QVQLQQSGPGLVKPSQTLSLTCVISGDSVSSNRAAWNWIRQSPSRGLEWLGRTYYRSKWYNDYAVSVKSRITINSDTSKNQISLQLNSVTPEDTAVYYCARVRPGIPFDYWGQGTTVTVSS
VL: DIQMTQSPDSLAVSLGERATINCESSQSVLFSSNKKNYLAWYQQKPGQPPKLLIYWASTRESGVPDRFSGSGSGTDFTLTINRLQAEDVAVYYCQQYNSTPWTFGQGTKVEIKR
